According to patent US20030091594A1 (University of Pennsylvania, published 2003):

What was measured:
[1] = biological target: T1, HIV-1/IIIB (HXBc2) gp120 pre-incubated with soluble CD4 (HIV-1); assay: 125I-gp120 binding to transfected 293T cells, with sCD4
T1 construct: also called HXB/CD4; HIXB/CD4

[2] = biological target: T1, HIV-1/IIIB (HXBc2) gp120 pre-incubated …; assay: cell-surface binding of 125I-gp120 with sCD4 to 293T cells transfected with CCR5

| Binder | binding result [1] | binding result [2] |
| --- | --- | --- |
| human CXCR4 (receptor, whole, on cells) MEGISIYTSDNYTEEMGSGDYDSMKEPCFREENANFNKIFLPTIYSIIFLTGIVGNGLVILVMGYQKKLRSMTDKYRLHLSVADLLFVITLPFWAVDAVANWYFGNFLCKAVHVIYTVNLYSSVLILAFISLDRYLAIVHATNSQRPRKLLAEKVVYVGVWIPALLLTIPDFIFANVSEADDRYICDRFYPNDLWVVVFQFQHIMVGLILPGIVILSCYCIIISKLSHSKGHQKRKALKTTVILILAFFACWLPYYIGISIDSFILLEIIKQGCEFENTVHKWISITEALAFFHCCLNPILYAFLGAKFKTSAQHALTSVSRGSSLKILSKGKRGGHSSVSTESESSSFHSS | binds | – |
| human CCR5 (receptor, whole, on cells) not shown | – | no binding |
